Experimental data reported in the supplement of paper PMC9112550, “Optimization of the antimicrobial peptide Bac7 by deep mutational scanning” (BMC Biology, 2022).

tested on: Escherichia coli TOP10; test: shrunken log2 fold change of peptide-encoding DNA abundance (4.5 h post-induction vs induction); higher = less antimicrobial activity (less host growth inhibition); details: time post-induction: 4.5 h; library: site-saturation at positions 5, 18, 19, 20
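Also: peptides expressed intracellularly from a pBAD plasmid library in pooled LB shake-flask culture, induced with 0.3% L-arabinose, DNA abundance read by NGS, three biological replicates, DESeq2 with apeglm shrinkage.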

Point of comparison: RRIRVRPPRLPRPRPRPEFMPRP, “shrunken log2 fold change” value -0.0942. Against it:
- RRIRWRPPRLPRPRPRPLITPRP — within 0.2 log units, 0.0192
- RRIRTRPPRLPRPRPRPPLVPRP — higher, 0.184
- RRIRWRPPRLPRPRPRPKGDPRP — within 0.2 log units, 0.0616
- RRIRCRPPRLPRPRPRPWNMPRP — lower, -0.316
- RRIRFRPPRLPRPRPRPAHTPRP — within 0.2 log units, -0.282
- RRIRWRPPRLPRPRPRPFVEPRP — lower, -0.436
- RRIRVRPPRLPRPRPRPLHEPRP — within 0.2 log units, -0.0936
- RRIRERPPRLPRPRPRPKYTPRP — lower, -0.297
- RRIRQRPPRLPRPRPRPKRKPRP — higher, 0.684
- RRIRIRPPRLPRPRPRPFPYPRP — within 0.2 log units, -0.288
- RRIRSRPPRLPRPRPRPLHCPRP — within 0.2 log units, 0.0547
- RRIRPRPPRLPRPRPRPEKIPRP — within 0.2 log units, -0.0804
- RRIRQRPPRLPRPRPRPDIIPRP — within 0.2 log units, -0.0199
- RRIRHRPPRLPRPRPRPKHRPRP — higher, 0.376
- RRIRDRPPRLPRPRPRPQQYPRP — lower, -0.473
- RRIRARPPRLPRPRPRPVDEPRP — higher, 0.33
- RRIRMRPPRLPRPRPRPCRGPRP — within 0.2 log units, 0.0309
- RRIRLRPPRLPRPRPRPCWHPRP — within 0.2 log units, -0.0884
- RRIRHRPPRLPRPRPRPNTPPRP — within 0.2 log units, 0.0157
- RRIRQRPPRLPRPRPRPDIWPRP — within 0.2 log units, -0.214
- RRIRARPPRLPRPRPRPKQAPRP — higher, 0.147
- RRIRMRPPRLPRPRPRPYHCPRP — lower, -0.72
- RRIRKRPPRLPRPRPRPMDVPRP — within 0.2 log units, 0.0608
- RRIRDRPPRLPRPRPRPSINPRP — within 0.2 log units, -0.113
- RRIRSRPPRLPRPRPRPDNMPRP — within 0.2 log units, -0.208
- RRIRKRPPRLPRPRPRPQYCPRP — within 0.2 log units, -0.0171
- RRIRKRPPRLPRPRPRPGWHPRP — higher, 0.133
- RRIRGRPPRLPRPRPRPAHMPRP — higher, 0.145
- RRIRMRPPRLPRPRPRPLSWPRP — higher, 0.982
- RRIRLRPPRLPRPRPRPLPVPRP — within 0.2 log units, 0.0348
- RRIRNRPPRLPRPRPRPLNLPRP — within 0.2 log units, -0.25
- RRIRDRPPRLPRPRPRPDGQPRP — higher, 0.705
- RRIRGRPPRLPRPRPRPMYPPRP — higher, 0.244
- RRIRDRPPRLPRPRPRPVMTPRP — higher, 0.374
- RRIRQRPPRLPRPRPRPAVGPRP — within 0.2 log units, 0.0738
- RRIRNRPPRLPRPRPRPVMDPRP — within 0.2 log units, 0.0106
- RRIRTRPPRLPRPRPRPYKNPRP — lower, -0.937
- RRIRNRPPRLPRPRPRPKLIPRP — within 0.2 log units, -0.0332
- RRIRPRPPRLPRPRPRPERPPRP — higher, 0.309
- RRIRPRPPRLPRPRPRPPQWPRP — higher, 0.403
- RRIRPRPPRLPRPRPRPLMYPRP — lower, -0.318
- RRIRLRPPRLPRPRPRPKDKPRP — higher, 0.112
- RRIRGRPPRLPRPRPRPYIMPRP — lower, -0.746
- RRIRLRPPRLPRPRPRPMNCPRP — lower, -0.507
- RRIRTRPPRLPRPRPRPGGVPRP — higher, 0.346
- RRIRWRPPRLPRPRPRPCNQPRP — lower, -0.78
- RRIRTRPPRLPRPRPRPHMEPRP — within 0.2 log units, 0.0103
- RRIRARPPRLPRPRPRPVFSPRP — within 0.2 log units, -0.0817
- RRIRNRPPRLPRPRPRPDEQPRP — within 0.2 log units, -0.0726
- RRIRARPPRLPRPRPRPPEKPRP — higher, 0.611
- RRIRCRPPRLPRPRPRPIRLPRP — within 0.2 log units, -0.0542
- RRIRFRPPRLPRPRPRPHPFPRP — within 0.2 log units, -0.105
- RRIRKRPPRLPRPRPRPYFFPRP — higher, 0.168
- RRIRGRPPRLPRPRPRPWTCPRP — within 0.2 log units, -0.0593
- RRIRWRPPRLPRPRPRPVRWPRP — higher, 0.874
- RRIRQRPPRLPRPRPRPPNIPRP — lower, -0.3
- RRIRTRPPRLPRPRPRPEGKPRP — within 0.2 log units, 0.0733
- RRIRTRPPRLPRPRPRPDKKPRP — within 0.2 log units, -0.0143
- RRIRQRPPRLPRPRPRPIYMPRP — within 0.2 log units, -0.113
- RRIRLRPPRLPRPRPRPGRLPRP — within 0.2 log units, 0.0389
- RRIRTRPPRLPRPRPRPYCTPRP — higher, 1.36
- RRIRGRPPRLPRPRPRPSGKPRP — higher, 0.367
- RRIRGRPPRLPRPRPRPSQRPRP — higher, 0.181
- RRIRYRPPRLPRPRPRPSGFPRP — lower, -0.99
- RRIRHRPPRLPRPRPRPVWVPRP — within 0.2 log units, -0.0634
- RRIRLRPPRLPRPRPRPPCKPRP — higher, 0.15
- RRIRSRPPRLPRPRPRPVHMPRP — lower, -0.322
- RRIRRRPPRLPRPRPRPYIAPRP — lower, -0.54
- RRIRERPPRLPRPRPRPHEHPRP — within 0.2 log units, -0.205
- RRIRNRPPRLPRPRPRPVLPPRP — within 0.2 log units, -0.11
- RRIRSRPPRLPRPRPRPMFQPRP — within 0.2 log units, 0.0483
- RRIRCRPPRLPRPRPRPRQTPRP — higher, 0.781
- RRIRLRPPRLPRPRPRPPWHPRP — higher, 0.193
- RRIRDRPPRLPRPRPRPFREPRP — lower, -0.376
